# Experiments:
# integrin α11/β1 = biological target: T1, integrin α11/β1 (Homo sapiens, UniProt P05556+Q9UKX5); experiment: FAK phosphorylation in HEK293T cells with forced expression of integrin α11/β1; format: cell-based
# T1 construct: expressed in transfected cells; host or cells: HEK293T
# Protocol: (§1) 100 nM irisin was incubated with 5 nM indicated his-tag integrins followed by immunoprecipitation using Ni-NTA agaroses. Precipitated integrins and co-precipitated irisin were analyzed by immunoblot analysis. […] HEK293T cells were seeded and incubated until 50% cell density. The cells were transfected with 0.1 μg plasmids of indicated integrins. After 48 hours, the cells were re-split to indicated dose of vitronectin-coated plates. Cells were incubated with culture medium for 3 hours. Cells were lysed to detect the indicated protein level using immunoblot analysis. FIG. 15C and FIG. 15D show the immunoblot data. Cells were treated and analyzed as FIG. 14B except using plasmids encoding integrin α5/β1 or integrin α11/β1 (FIG. 15C) integrin αV/β1(FIG. 15D).
# (§2) HEK293T cells were set up for experiments at 1×10^5 cells per well in 6 well plate. On day 2, cells were transiently transfected with the indicated plasmids with FuGENE® 6 reagent (Roche Applied Science) according to the manufacturer's protocol. […]
# (§3) Cells were harvested in RIPA buffer containing protease-inhibitor cocktail and phosphataseinhibitor cocktail. […] Protein levels were analyzed via western blot using indicated antibody. […] Protein levels were analyzed using western blot against indicated antibody.
# integrin αV/β1 = biological target: T2, integrin αV/β1 (Homo sapiens, UniProt P05556+P06756); experiment: FAK phosphorylation in HEK293T cells with forced expression of integrin αV/β1; format: cell-based
# T2 construct: expressed in transfected cells; host or cells: HEK293T
# T2 sequence (P06756 31-889 limits assumed): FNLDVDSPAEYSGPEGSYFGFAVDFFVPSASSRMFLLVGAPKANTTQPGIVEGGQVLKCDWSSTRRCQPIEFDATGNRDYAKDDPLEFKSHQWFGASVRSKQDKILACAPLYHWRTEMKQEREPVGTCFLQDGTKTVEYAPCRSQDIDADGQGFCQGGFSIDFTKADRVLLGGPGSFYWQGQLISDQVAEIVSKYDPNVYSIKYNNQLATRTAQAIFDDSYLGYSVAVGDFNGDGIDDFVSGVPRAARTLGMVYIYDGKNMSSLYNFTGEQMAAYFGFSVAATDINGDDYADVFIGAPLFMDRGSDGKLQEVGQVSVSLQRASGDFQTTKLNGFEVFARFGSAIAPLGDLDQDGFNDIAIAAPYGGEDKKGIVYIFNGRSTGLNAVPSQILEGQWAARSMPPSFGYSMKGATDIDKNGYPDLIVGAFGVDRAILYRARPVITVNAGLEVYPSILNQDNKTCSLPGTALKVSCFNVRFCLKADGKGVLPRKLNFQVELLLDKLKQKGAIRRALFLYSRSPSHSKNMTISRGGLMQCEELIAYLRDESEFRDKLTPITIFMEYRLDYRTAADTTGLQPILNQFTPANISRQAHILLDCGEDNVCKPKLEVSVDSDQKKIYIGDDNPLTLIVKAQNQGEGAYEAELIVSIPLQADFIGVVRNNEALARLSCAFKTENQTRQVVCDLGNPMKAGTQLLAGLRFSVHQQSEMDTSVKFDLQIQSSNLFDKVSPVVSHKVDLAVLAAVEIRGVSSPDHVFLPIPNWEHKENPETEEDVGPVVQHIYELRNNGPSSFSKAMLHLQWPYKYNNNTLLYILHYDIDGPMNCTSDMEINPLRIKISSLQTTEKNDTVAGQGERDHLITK
# T2 sequence (P06756 891-1048 partner limits assumed): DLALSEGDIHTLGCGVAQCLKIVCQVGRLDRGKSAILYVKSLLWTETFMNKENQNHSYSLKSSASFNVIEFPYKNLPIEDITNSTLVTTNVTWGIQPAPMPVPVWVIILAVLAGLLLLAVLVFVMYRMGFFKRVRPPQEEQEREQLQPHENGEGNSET
# T2 sequence (P05556 21-798): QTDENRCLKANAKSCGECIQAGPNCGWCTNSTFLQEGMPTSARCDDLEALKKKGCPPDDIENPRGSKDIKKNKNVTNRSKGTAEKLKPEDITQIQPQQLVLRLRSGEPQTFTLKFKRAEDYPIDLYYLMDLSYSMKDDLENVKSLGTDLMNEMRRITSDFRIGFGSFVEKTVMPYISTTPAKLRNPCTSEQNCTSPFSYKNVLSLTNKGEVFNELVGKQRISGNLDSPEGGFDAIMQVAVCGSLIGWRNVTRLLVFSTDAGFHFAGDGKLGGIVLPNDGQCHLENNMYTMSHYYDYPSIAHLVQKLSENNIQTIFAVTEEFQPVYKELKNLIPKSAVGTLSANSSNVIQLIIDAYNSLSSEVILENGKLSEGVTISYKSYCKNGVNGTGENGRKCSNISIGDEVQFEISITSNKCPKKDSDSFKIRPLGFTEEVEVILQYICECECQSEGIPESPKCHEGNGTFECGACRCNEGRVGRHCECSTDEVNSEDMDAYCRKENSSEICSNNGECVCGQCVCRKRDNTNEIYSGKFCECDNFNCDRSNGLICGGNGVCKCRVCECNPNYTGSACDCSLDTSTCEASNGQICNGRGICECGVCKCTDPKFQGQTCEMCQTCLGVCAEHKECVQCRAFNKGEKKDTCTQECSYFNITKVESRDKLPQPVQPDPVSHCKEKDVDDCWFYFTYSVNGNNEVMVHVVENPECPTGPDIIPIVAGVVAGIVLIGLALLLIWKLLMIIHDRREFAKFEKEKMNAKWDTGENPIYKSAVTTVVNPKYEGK
# Protocol: as §1, §2, §3
# inguinal fat = experiment: Irisin injection in mice: Ucp1/Dio2 mRNA and Ucp1 protein in inguinal fat; format: in vivo
# Protocol: FIG. 18A-FIG. 18B show mRNA and protein levels of indicated genes. 1 mg/kg irisin was injected to 8-week old mice every other day for 6 days. mRNA levels of indicated genes in inguinal fat were analyzed by qRT-PCR. Cyclophilin was used for housekeeping gene (FIG. 18A). Inguinal fats were also lysed to detect the indicated protein level using immunoblot analysis (FIG. 18B). FIGS. 18C and 18D show mRNA and protein levels of indicated genes. Mice were treated and analyzed as (A-B) with addition of coinjection of […] control RGD peptide or cyclo RGDyK (cRGDyK). mRNA levels of indicated genes in inguinal fat were analyzed by qRT-PCR. Cyclophilin was used for house-keeping gene (FIG. 18C). Inguinal fats were also lysed to detect the indicated protein level using immunoblot analysis (FIG. 18D). […] Ucp1 mRNA level was analyzed by qRT-PCR. […]
# RNA was extracted from cultured cells or frozen tissues using TRIzol® (Thermo Fischer Scientific) and purified with RNeasy® mini kit (QIAGEN 74106). […] To perform qRT-PCR analysis, normalized RNA was reverse transcribed using a high-capacity cDNA reverse-transcription kit (Applied Biosystems™). cDNA was analyzed by qRT-PCR with indicated primers. Relative mRNA levels were calculated using the comparative CT method and normalized to cyclophilin mRNA. […]
# T1 sequence (Q9UKX5 23-1188): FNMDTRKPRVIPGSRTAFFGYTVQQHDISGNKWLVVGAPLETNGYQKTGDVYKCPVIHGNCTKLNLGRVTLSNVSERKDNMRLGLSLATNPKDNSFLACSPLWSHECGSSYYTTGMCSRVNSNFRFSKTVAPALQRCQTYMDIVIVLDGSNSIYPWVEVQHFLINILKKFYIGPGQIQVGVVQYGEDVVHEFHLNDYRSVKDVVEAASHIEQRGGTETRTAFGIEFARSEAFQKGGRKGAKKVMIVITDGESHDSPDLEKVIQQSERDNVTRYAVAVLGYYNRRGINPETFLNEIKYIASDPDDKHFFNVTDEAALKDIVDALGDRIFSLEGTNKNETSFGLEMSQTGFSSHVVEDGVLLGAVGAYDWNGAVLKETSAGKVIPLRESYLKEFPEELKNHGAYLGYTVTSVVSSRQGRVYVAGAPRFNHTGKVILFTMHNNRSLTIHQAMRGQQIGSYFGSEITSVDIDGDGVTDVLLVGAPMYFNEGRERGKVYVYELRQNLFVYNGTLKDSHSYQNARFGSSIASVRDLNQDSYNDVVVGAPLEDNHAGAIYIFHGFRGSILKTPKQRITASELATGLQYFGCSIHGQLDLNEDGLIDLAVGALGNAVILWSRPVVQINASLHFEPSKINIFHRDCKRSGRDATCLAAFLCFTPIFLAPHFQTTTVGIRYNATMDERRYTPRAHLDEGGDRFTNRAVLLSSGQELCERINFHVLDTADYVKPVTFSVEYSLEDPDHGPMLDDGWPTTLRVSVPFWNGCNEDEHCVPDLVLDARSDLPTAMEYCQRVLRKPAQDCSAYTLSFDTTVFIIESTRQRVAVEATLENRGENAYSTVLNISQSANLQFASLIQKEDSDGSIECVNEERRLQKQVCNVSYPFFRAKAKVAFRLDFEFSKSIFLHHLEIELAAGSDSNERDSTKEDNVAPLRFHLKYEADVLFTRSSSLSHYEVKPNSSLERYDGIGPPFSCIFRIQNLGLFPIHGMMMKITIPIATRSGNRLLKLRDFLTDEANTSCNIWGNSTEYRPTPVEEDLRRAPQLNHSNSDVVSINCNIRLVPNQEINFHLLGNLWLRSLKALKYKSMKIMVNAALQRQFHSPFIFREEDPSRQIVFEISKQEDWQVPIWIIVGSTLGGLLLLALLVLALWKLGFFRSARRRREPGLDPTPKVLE
# T1 sequence (P05556 21-798): as the sequence (P05556 21-798) above
molecule,measurement,setting,value
"irisin: secreted cleaved form of FNDC5; recombinant human/mouse irisin with C-terminal his tag produced in HEK293 cells (protein, left off: small tags and cut ends, secreted cleaved form of FNDC5; recombinant human/mouse irisin with C-terminal his tag produced in HEK293 cells) DSPSAPVNVTVRHLKANSAVVSWDVLEDEVVIGFAISQQKKDVRMLRFIQEVNTTTRSCALWDLEEDTEYIVHVQAISIQGQSPASEPVLFKTPREAEKMASKNKDEVTMKE",phosphorylation of FAK upon irisin treatment,integrin α11/β1,little phosphorylation of FAK above background
same,phosphorylation of FAK upon irisin treatment,integrin αV/β1,increased FAK phosphorylation
same,Ucp1 protein level in whole tissue (western blot),"inguinal fat; mice, irisin injections",also increased
same,increase of mRNA level of Ucp1,"inguinal fat; wild-type mice, 1 mg/kg irisin every other day for 6 days",more than 2 fold
